This note sets out measurements from patent US6110457.

The target of this assay is T1, bovine fetuin (type IV; Sigma Chemical Company) (bovine) (UniProt P12763).
T1 sequence: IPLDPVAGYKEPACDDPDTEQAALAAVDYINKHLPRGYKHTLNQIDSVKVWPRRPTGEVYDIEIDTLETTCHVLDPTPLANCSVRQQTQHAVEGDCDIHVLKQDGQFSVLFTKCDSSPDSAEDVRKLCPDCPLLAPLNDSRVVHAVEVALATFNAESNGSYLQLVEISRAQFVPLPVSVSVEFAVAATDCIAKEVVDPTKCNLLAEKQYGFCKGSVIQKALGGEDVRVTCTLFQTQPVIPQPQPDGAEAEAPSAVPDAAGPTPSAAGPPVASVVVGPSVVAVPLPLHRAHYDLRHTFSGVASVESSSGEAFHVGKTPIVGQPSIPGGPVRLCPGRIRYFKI

B1: hemagglutinin-neuraminidase protein, HN, of wild-type HPIV-3 (JS) (enzyme)
chain: MEYWKHTNHGKDAGNELETSMATHGNKLTNKIIYILWTIILVLLSIVFIIVLINSIKSEKAHESLLQDINNEFMEITEKIQMASDNTNDLIQSGVNTRLLTIQSHVQNYIPISLTQQMSDLRKFISEITIRNDNQEVLPQRITHDVGIKPLNPDDFWRCTSGLPSLMKTPKIRLMPGPGLLAMPTTVDGCVRTPSLVINDLIYAYTSNLITRGCQDIGKSYQVLQIGIITVNSDLVPDLNPRISHTFNINDNRKSCSLALLNTDVYQLCSTPKVDERSDYASSGIEDIVLDIVNYDGSISTTRFKNNNISFDQPYAALYPSVGPGIYYKGKIIFLGYGGLEHPINENVICNTTGCPGKTQRDCNQASHSPWFSDRRMVNSIIVVDKGLNSIPKLKVWTISMRQNYWGSEGRLLLLGNKIYIYTRSTSWHSKLQLGIIDITDYSDIRIKWTWHNVLSRPGNNECPWGHSCPDGCITGVYTDAYPLNPTGSIVSSVILDSQKSRVNPVITYSTATERVNELAILNRTLSAGYTTTSCITHYNKGYCFHIVEINHKSLNTFQPMLFKTEIPKSCS
For the molecule B1, the Neuraminidase activity with Fetuin (optical density values at 549nm) (optical density at 549nm) came out at 1.11.
